Laboratory results taken from patent US20130078247A1 (Boehringer Ingelheim, published 2013).
Substitutions are numbered along the chain they refer to.

T1: human DLL1 (human, UniProt O00548 18-545, limits assumed)
T1 construct: also called hDLL1; rhDLL1
T1 sequence (looked up): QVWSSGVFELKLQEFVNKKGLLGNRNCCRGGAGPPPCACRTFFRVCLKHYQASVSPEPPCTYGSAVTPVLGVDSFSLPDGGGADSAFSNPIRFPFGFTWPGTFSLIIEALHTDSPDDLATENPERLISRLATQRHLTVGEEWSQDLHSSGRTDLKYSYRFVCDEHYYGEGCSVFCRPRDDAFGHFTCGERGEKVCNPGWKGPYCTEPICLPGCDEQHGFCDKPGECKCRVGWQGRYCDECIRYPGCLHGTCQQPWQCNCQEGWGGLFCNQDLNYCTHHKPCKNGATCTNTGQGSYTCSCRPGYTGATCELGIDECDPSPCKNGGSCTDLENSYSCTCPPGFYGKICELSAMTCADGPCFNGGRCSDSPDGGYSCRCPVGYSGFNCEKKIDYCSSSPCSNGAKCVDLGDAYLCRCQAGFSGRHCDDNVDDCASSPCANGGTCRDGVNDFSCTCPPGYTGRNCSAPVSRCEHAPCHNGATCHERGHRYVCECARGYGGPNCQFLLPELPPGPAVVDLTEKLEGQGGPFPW

B1: DLLBII19F04 (VHH)
VHH: EVQLVESGGGLVQAEGSLRLSCAASGSTFSTYAMAWYRQAPGKQRELVAGISFDGSTHYAESVKGRFTISRDDAKNTVSLQMNSLKPEDAAVYYCYSVHPSTGFGSWGQGTQVTVSS
notes: also called DLLBII19F4; not shown: C-terminal c-myc and His6 tags
B2: DLLBII28B06 (VHH)
VHH: EVQLVESGGGLVQAGGSLRLSCAASGSTFSTYAMGWYRQDPGNQRELVAAISSDGSTHYADSVKGRFTISRDNAKNTVYLQMNSLKPEDTAVYYCYAPVKVAGLEYDYWGQGTQVTVSS
notes: also called DLLBII28B6; not shown: C-terminal c-myc and His6 tags
B3: DLLBII33C05 (VHH)
VHH: EVQLVESGGGLVQAGGSLRLSCAASGFTLDNYVIGWFRQAPGKEREEVSCISSSGGSTDYLDSVKGRFTISRDNAKNTVYLQMNSLKPEDTAVYYCAADSLPCYYDKMVYDYWGQGTQVTVSS
notes: also called DLLBII33C5; not shown: C-terminal c-myc and His6 tags
B4: DLLBII19F12 (VHH)
VHH: EVQLVESGGGLVQAGGSLRLSCTASGSTFTSYAMGWYRQAPGKQRELVAAISSDDSTYYADCVKGRFTISRDNAKNTVYLQMNSLKPEDTAVYYCNAPHSDYDEEAPSDFGSWGQGTQVTVSS
notes: not shown: C-terminal c-myc and His6 tags
B5: DLLBII17B03 (VHH)
VHH: EVQLVESGGGLVQPGGSLRLSCAASGFTFENYALGWFRQAPGKEREWVSCISSSDGTTYYADSVKGRFTISRDNVKNTVYLQMNRLKPEDTAIYYCALSLGSSWCAYDYWGQGTQVTVSS
notes: also called DLLBII17B3; not shown: C-terminal c-myc and His6 tags
B6: DLLBII129B05 (VHH)
VHH: EVQLVESGGGLVQAGGSLRLSCAASGRTFSSYAMAWYRQAPGKEREYVAAIRWSGGTAYYADSVQGRFTISRDNAKNTVYLQMNSLKPEDTAVYYCANRAPDTRLAPYEYDHWGQGTQVTVSS
notes: not shown: C-terminal c-myc tag and (His)6 tag
B7: DLLBII129D08 (VHH)
VHH: B6 VHH with A106E, E109L, H112Y
notes: as for B6
B8: DLLBII130D06 (VHH)
VHH: B6 VHH with A23S, G56E, A106E, E109L
B9: DLLBII130B04 (VHH)
VHH: B6 VHH with Y37F, A106R, E109L
B10: DLLBII130E03 (VHH)
VHH: B6 VHH with A106E
B11: DLLBII129E11 (VHH)
VHH: B6 VHH with A106R, E109L, H112Y
notes: as for B6
B12: DLLBII130A05 (VHH)
VHH: B6 VHH with A106G, E109L
B13: DLLBII130F06 (VHH)
VHH: B6 VHH with H112Y
notes: as for B6
B14: DLLBII129H07 (VHH)
VHH: B6 VHH with A106E, H112Y
notes: as for B6
B15: DLLBII130B03 (VHH)
VHH: B6 VHH with E109L, H112Y
notes: as for B6
B16: DLLBII130B02 (VHH)
VHH: B6 VHH with Y37F, N84Y, E109L
B17: DLLBII8C11 (VHH)
VHH: EVQLVESGGGLVQAGGSLRLSCAASGFTFDDYAIGWFRQAPGKEREGVSCISSHDRTTYYADSVKGRFTISSDNAKNTVYLQMNSLKPEDTAVYYCAADPLVCGYNDPRLADYWGQGTQVTVSS
notes: also called DLLBII08C11; not shown: C-terminal c-myc and His6 tags
B18: DLLBII5B11 (VHH)
VHH: EVQLVESGGGLVQPGGSLRLSCAISGFTLDLHVIGWLRQAPGKEREWVSCISSSDGSTYYADSVKGRFTISRDNAKNTVYLQMNSLKPEDTAVYYCAAPWDSWYCGIGNDYDYWGQGTQVTVSS
notes: also called DLLBII05B11; not shown: C-terminal c-myc and His6 tags
B19: DLLBII6B11 (VHH)
VHH: EVQLVESEGGLVQAGGSLRLSCAASGSTFSSYAMGWYRQAPGKQRELVAVISNGGITNYPNSVKGRFTISRDNAKNTVYLQMNSLKPEDTAVYYCFYSGSYYYPTDVHEYDYWGQGTQVTVSS
notes: also called DLLBII06B11; not shown: C-terminal c-myc and His6 tags
B20: DLLBII7B05 (VHH)
VHH: EVQLVESGGGLVQAGGSLRLSCAASGFALDYYAVGWFRQAPGKEREGVSCISSRGGSTFYADSVKGRFTTSRNNAKNTVYLQMNSLKPEDTAVYYCAAHPLQNCCGGSAYASPEAVYEYWGQGTQVTVSS
notes: also called DLLBII7B5; DLLBII07B05; not shown: C-terminal c-myc and His6 tags
B21: DLLBII8A09 (VHH)
VHH: EVQLVESGGGLVQPGGSLRLSCAASGFTLDYYNIGWFRQAPGKEREWVSCINSSDGSTYYADSVKGRFTISRDNAKNTVYLQMNSLKPEDTAVYYCAAPFAYYSNLCGVNGYDYWGQGTQVTVSS
notes: also called DLLBII08A09; not shown: C-terminal c-myc and His6 tags
B22: DLLBII015 (VHH)
VHH: EVQLVESGGGLVQPGGSLRLSCAASGFTIGSYDMSWVRRSPGKGPEWVSAINSGGGSTYYADYVKGRFTISRDNAKNTLYLQMNSLKPEDTAVYYCAADRYIWARQGEYWGAYAYDYWGQGTQVTVSS
notes: as for B6
B23: DLLBII133A09 (VHH)
VHH: B22 VHH with I29F
notes: as for B6
B24: DLLBII136C07 (VHH)
VHH: B22 VHH with I29F, A50S, A114E
notes: as for B6
B25: DLLBII133G05 (VHH)
VHH: B22 VHH with I29F, A61T
notes: as for B6

biological target: T2, recombinant human DLL4 extracellular domain, C-terminally His-tagged (R&D Systems) (human, UniProt Q9NR61 25-522, biotinylated in the competition assays (sites not given)); test: periplasmic extract; hDLL4/hNotch1 AlphaScreen
T2 construct: also called rhDLL4; hDLL4; not shown: C-terminal His tag
Experimental: To this mixture, the acceptor beads and the streptavidin donor beads are added and further incubated for 1 hour at room temperature. Fluorescence is measured by reading plates on the Envision Multilabel Plate reader (Perkin Elmer, Waltham, Mass., USA) using an excitation wavelength of 680 nm and an emission wavelength of 520 nm.

T2 sequence (Q9NR61 25-522): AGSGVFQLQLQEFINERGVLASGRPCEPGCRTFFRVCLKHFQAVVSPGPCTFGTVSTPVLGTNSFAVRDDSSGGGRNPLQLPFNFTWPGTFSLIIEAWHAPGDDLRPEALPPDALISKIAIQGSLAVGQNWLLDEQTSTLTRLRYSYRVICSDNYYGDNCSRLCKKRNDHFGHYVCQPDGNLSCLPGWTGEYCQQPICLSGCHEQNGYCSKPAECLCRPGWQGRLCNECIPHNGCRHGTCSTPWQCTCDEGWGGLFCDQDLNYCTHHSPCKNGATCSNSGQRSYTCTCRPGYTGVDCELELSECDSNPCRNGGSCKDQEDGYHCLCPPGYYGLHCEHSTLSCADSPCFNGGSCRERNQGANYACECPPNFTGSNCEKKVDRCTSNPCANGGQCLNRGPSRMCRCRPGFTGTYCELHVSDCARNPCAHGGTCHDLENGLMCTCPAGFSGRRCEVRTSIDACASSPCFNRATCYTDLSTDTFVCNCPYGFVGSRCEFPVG

| Binder | % inhibition |
| --- | --- |
| B1 | 95% |
| B2 | 54% |
| B3 | 75% |
| B4 | 98% |
| B5 | 77% |

biological target: T3, recombinant mouse DLL4 (mouse, UniProt Q9JI71 27-532); test: ProteOn off-rate screen, periplasmic extract, mDLL4 on chip
T3 construct: extracellular domain; also called rmDLL4; mDLL4; not shown: C-terminal His tag
Experimental: (§1) In a first cycle, amino acid substitutions are introduced randomly in both framework (FW) and complementary determining regions (CDR) using the error-prone PCR method. […] After a polish step, PCR products are inserted via unique restriction sites into a vector designed to facilitate phage display of the VHH library. […] No selections on murine DLL4 are included as (conservation of) cross-reactivity is assessed at the screening level. Individual mutants are produced as recombinant protein using an expression vector derived from pUC119, which contains the LacZ promoter, a resistance gene for ampicillin, a multiple cloning site and an ompA leader sequence (pAX50). E. coli TG1 cells are transformed with the expression vector library and plated on agar plates (LB+Amp+2% glucose). Single colonies are picked from the agar plates and grown in 1 mL 96-deep-well plates. VHH expression is induced by adding IPTG (1 mM). Periplasmic extracts (in a volume of ˜80 uL) are prepared according to standard methods and screened for binding to recombinant human and mouse DII4 in a ProteOn (BioRad, Hercules, Calif., USA) off-rate assay. […] Periplasmic extract of affinity matured clones is diluted 1/10 and injected across the “analyte channels” A1-A6. An average off-rate is calculated of the wild type clones present in the plate and served as a reference to calculate off-rate improvements.

T3 sequence (Q9JI71 27-532): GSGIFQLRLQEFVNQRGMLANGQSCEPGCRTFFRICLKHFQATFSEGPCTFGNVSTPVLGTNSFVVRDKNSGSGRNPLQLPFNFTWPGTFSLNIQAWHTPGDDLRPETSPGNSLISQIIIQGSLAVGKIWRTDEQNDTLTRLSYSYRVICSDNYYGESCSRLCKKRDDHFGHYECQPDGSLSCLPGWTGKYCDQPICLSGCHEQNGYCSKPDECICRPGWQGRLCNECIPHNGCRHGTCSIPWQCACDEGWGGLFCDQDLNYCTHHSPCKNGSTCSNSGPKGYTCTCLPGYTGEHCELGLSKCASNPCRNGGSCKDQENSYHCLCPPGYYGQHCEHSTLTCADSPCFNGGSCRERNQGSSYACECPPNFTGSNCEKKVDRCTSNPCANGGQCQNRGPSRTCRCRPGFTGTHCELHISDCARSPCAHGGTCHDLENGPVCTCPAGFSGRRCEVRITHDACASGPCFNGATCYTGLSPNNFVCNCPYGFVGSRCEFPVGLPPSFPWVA

| Binder | fold (off-rate improvement over DLLBII101G08) |
| --- | --- |
| B6 | 20 fold |
| B7 | 35 fold |
| B8 | 16 fold |
| B9 | 17 fold |
| B10 | 18 fold |
| B11 | 26 fold |
| B12 | 17 fold |
| B13 | 19 fold |
| B14 | 27 fold |
| B15 | 20 fold |
| B16 | 17 fold |

biological target: T2, recombinant human DLL4 extracellular …; test: periplasmic extract; hDLL4 ELISA

| Binder | % inhibition |
| --- | --- |
| B1 | 98% |
| B17 | 57% |
| B18 | 98% |
| B2 | 23% |
| B3 | 86% |
| B19 | 98% |
| B4 | 98% |
| B20 | 84% |
| B21 | 96% |
| B5 | 76% |

biological target: T4, recombinant human DLL4 (human, UniProt Q9NR61 25-522); test: ProteOn off-rate screen, periplasmic extract, hDLL4 on chip
T4 construct: R&D Systems C-terminally His-tagged extracellular domain; also called rhDLL4; hDLL4; not shown: C-terminal His tag
Experimental: as §1

T4 sequence (Q9NR61 25-522): as the sequence (Q9NR61 25-522) above

| Binder | fold (off-rate improvement over DLLBII101G08) |
| --- | --- |
| B6 | 24 fold |
| B7 | 38 fold |
| B8 | 26 fold |
| B9 | 22 fold |
| B10 | 24 fold |
| B11 | 28 fold |
| B12 | 24 fold |
| B13 | 27 fold |
| B14 | 30 fold |
| B15 | 27 fold |
| B16 | 23 fold |

biological target: T1, human DLL1; test: binding ELISA, coated hDLL1
Experimental: (§2) Absence of binding to homologous ligands human DLL1 and human Jagged-1 is assessed via solid phase binding assay (ELISA). In brief, human DLL1 (Alexis, San Diego, Calif., USA) and human Jagged-1 (Alexis, San Diego, Calif., USA) are coated overnight at 4° C. at 1 μg/mL in a 96-well MaxiSorp plate (Nunc, Wiesbaden, Germany). Wells are blocked with a casein solution (1% in PBS). VHHs are applied as dilution series and binding is detected using a mouse anti-myc (Roche) and an anti-mouse-AP conjugate (Sigma, St. Louis, Mo., USA).

| Binder | binding result |
| --- | --- |
| B6 | no binding |
| B7 | no binding |
| B11 | no binding |
| B22 | no binding |
| B23 | no binding |
| B24 | no binding |
| B25 | no binding |

biological target: T5, human Jagged-1 (human, UniProt P78504 34-1067, limits assumed); test: binding ELISA, coated hJagged-1
T5 construct: also called hJag-1; hJAG1
Experimental: as §2

| Binder | binding result |
| --- | --- |
| B6 | no binding |
| B7 | no binding |
| B11 | no binding |
| B22 | no binding |
| B23 | no binding |
| B24 | no binding |
| B25 | no binding |
